The source of these data is the supplement of paper PMC9732359.

± gives the uncertainty stated by the source.

The nature of this data set: protein stability index of a GFP-peptide fusion (yeast GPS) (PSI 1-4); higher = more stable; sorted into four equal gates, so the index is relative within each strain. In outline: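 Tiled yeast protein peptides of 17 residues were each joined downstream of GFP, on plasmids that also express Cherry. The pooled library was maintained in yeast, and mid-log cultures in leucine-free medium were sorted into four equal gates on the GFP/Cherry ratio. Plasmids from every gate were amplified by PCR and sequenced on Illumina, with barcodes linking reads to strains. The protein stability index of a peptide is its gate-number-weighted read frequency summed over the gates.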

As for FGAKPDENKASATSKPA [YJL041W/NSP1], the protein stability index reads like this: (doa10∆) 2.59 ± 0.066; (pdr5∆) 2.87 ± 0.052; (san1∆) 2.56 ± 0.057; (ubr1∆) 2.74 ± 0.052.
In the case of LLIIRSLKNTDALLNST [YJL039C/NUP192], the protein stability index is, setting by setting: (doa10∆) 2.97 ± 0.086; (pdr5∆) 3 ± 0.096; (san1∆) 2.37 ± 0.14; (ubr1∆) 2.45 ± 0.15.
In the same order, the values of ALPDVVVKGLPDISRAV [RPO31] are 2.85 ± 0.13, 2.74 ± 0.079, 2.86 ± 0.072 and 3.08 ± 0.12.
With LGKQSSSLLSRLISSKM [FAS2], the protein stability index is 2.98 ± 0.065 (doa10∆), 2.94 ± 0.065 (pdr5∆), 3.02 ± 0.078 (san1∆) and 2.7 ± 0.048 (ubr1∆).
In the same order, the values of FPRTRFEAQIDSVEFIF [RPN10] are 2.61 ± 0.11, 2.88 ± 0.066, 2.62 ± 0.11 and 2.81 ± 0.068.
The corresponding values for TTDSLTKVLQADLPGSY [YMR129W/POM152] are 2.38 ± 0.082, 2.79 ± 0.14, 2.49 ± 0.1 and 2.43 ± 0.078.
For MLSAHNIIESIANFSRA [YJR042W/NUP85], the protein stability index was found to be 2.31 ± 0.074 (doa10∆), 2.43 ± 0.063 (pdr5∆), 2.87 ± 0.048 (san1∆) and 2.48 ± 0.036 (ubr1∆).
The corresponding values for CVKNHGQSSSIQSSLMT [YCS4] are 2.48 ± 0.17, 2.67 ± 0.14, 2.83 ± 0.052 and 3.05 ± 0.1.
The corresponding values for PKKHLSETADETLENNI [RPN11] are 3.15 ± 0.1, 3.13 ± 0.098, 3.17 ± 0.077 and 2.84 ± 0.088.
Turning to GVAMNPVDHPHGGGNHQ [RPL2A], the protein stability index by setting is: (doa10∆) 2.9 ± 0.27; (ubr1∆) 3.25 ± 0.14.
Regarding APSLTVPPIASPQQFLR [PRE2], the protein stability index is 1.56 ± 0.05 (doa10∆), 1.95 ± 0.058 (pdr5∆), 1.67 ± 0.071 (san1∆) and 1.65 ± 0.045 (ubr1∆).
In the same order, the values of NENNSNGGEDTSVENEG [REC8] are 3.31 ± 0.14, 3.44 ± 0.14, 3.05 ± 0.15 and 3.07 ± 0.089.
In the same order, the values of SVINVSAQRDRRYRKRV [RPS17A] are 2.34 ± 0.06, 2.06 ± 0.063, 1.71 ± 0.1 and 2.06 ± 0.08.
The corresponding values for IVFVHSRKETSRTATWL [BRR2] are 2.53 ± 0.11, 2.67 ± 0.12, 2.57 ± 0.21 and 2.89 ± 0.077.
Consider LFQELSKVVDDMPSLRL [GRR1], for which the protein stability index turned out to be 3.2 ± 0.18 (doa10∆), 1.61 ± 0.11 (pdr5∆), 2.22 ± 0.12 (san1∆) and 2.31 ± 0.085 (ubr1∆).
The corresponding values for VMYGTAYKFEEVSKDLI [RPB8] are 2.9 ± 0.062, 3.18 ± 0.061, 3.34 ± 0.044 and 3.09 ± 0.051.
The corresponding values for VKCEELSNTLACYRTIM [RRP40] are 2.24 ± 0.069, 2.49 ± 0.093, 2.01 ± 0.087 and 2.57 ± 0.075.
The corresponding values for IVIDVDYNKKQDRIQDV [MED1] are 3.16 ± 0.15, 3.13 ± 0.091, 2.99 ± 0.094 and 3.09 ± 0.077.
As for RCFSCGKVVGDKWESYL [RPB10], the protein stability index reads like this: (doa10∆) 1.73 ± 0.14; (pdr5∆) 2.11 ± 0.1; (san1∆) 1.98 ± 0.16.
In the case of QSLGLDDLQKFNGIENQ [ISW2], the protein stability index is, setting by setting: (doa10∆) 2.77 ± 0.1; (pdr5∆) 2.73 ± 0.082; (san1∆) 2.44 ± 0.07; (ubr1∆) 2.69 ± 0.043.
In the same order, the values of DHGDGILLIDSEIARTY [RPN9] are 2.73 ± 0.22, 3.03 ± 0.3, 3.29 ± 0.17 and 3.17 ± 0.24.
For the sequence ARVSPRNNVANKQPRNE [YAR002W/NUP60], the protein stability index reads like this: (doa10∆) 3.29 ± 0.14; (pdr5∆) 3.78 ± 0.26; (ubr1∆) 3.65 ± 0.25.
Turning to TLTELKDALSNSILSVR [SRB2], the protein stability index reads like this: (doa10∆) 3.29 ± 0.068; (pdr5∆) 3.38 ± 0.082; (san1∆) 3.21 ± 0.049; (ubr1∆) 3.37 ± 0.09.
FIRHVAKLNYKNLNPAS [ECM29]: the protein stability index (doa10∆) is 2.49 ± 0.15, the protein stability index (pdr5∆) amounted to 1.16 ± 0.1 and the protein stability index (ubr1∆) is 1.03 ± 0.076.
IPNIPPNINTWQQVTAL [GAL11]: the protein stability index reads like this: (doa10∆) 2.96 ± 0.14; (pdr5∆) 3.15 ± 0.1; (san1∆) 2.9 ± 0.11; (ubr1∆) 2.54 ± 0.12.
In the same order, the values of PGEFVTAIAHSIREQVH [SNF5] are 2.27 ± 0.08, 2.13 ± 0.047, 1.94 ± 0.054 and 2.29 ± 0.047.
Take PKSTLDNWRREFLKWTP [ISW2]: the protein stability index is, setting by setting: (pdr5∆) 3.15 ± 0.15; (ubr1∆) 2.76 ± 0.09.
As to PAAANLDALVDCENFFN [YJL039C/NUP192], the protein stability index reads like this: (doa10∆) 2.71 ± 0.085; (pdr5∆) 2.77 ± 0.08; (san1∆) 2.64 ± 0.057; (ubr1∆) 2.7 ± 0.093.
The corresponding values for SAIRKCVRVQLIKNGKK [RPS23A] are 2.91 ± 0.081, 3.02 ± 0.069, 2.45 ± 0.12 and 3.19 ± 0.095.
The corresponding values for MIVYYKDAISFIKEIHK [YCS4] are 2.19 ± 0.092, 1.84 ± 0.069, 2.57 ± 0.11 and 2.26 ± 0.072.
The corresponding values for RDIEKITSLYALIRRDF [CDC53] are 2.1 ± 0.035, 1.89 ± 0.03, 1.84 ± 0.05 and 1.75 ± 0.021.
Consider PQLISDKFSPEDGLGPL [ARP7], for which the protein stability index came out at 2.84 ± 0.072 (doa10∆), 2.83 ± 0.067 (pdr5∆), 2.6 ± 0.062 (san1∆) and 2.61 ± 0.055 (ubr1∆).
LEGEEIKSEEKKGKSSD [RPN1]: the protein stability index was determined as 2.19 ± 0.077 (doa10∆), 2.17 ± 0.07 (pdr5∆), 3.05 ± 0.084 (san1∆) and 2.4 ± 0.043 (ubr1∆).
In the same order, the values of SNIPNLLRNLESKMRQQ [YDL088C/ASM4] are 3.15 ± 0.11, 2.84 ± 0.086, 2.97 ± 0.12 and 3.07 ± 0.062.
YVIKALQSLTSKGYVKT [RPS10A]: the protein stability index is 2.88 ± 0.12 (doa10∆), 1.74 ± 0.072 (pdr5∆), 1.39 ± 0.17 (san1∆) and 2.6 ± 0.089 (ubr1∆).
The corresponding values for NVRSSVLQKVIEWAEHH [SKP1] are 2.4 ± 0.096, 2.91 ± 0.11, 2.4 ± 0.085 and 2.03 ± 0.099.
In the case of GTILSSAGDDGKVRLWK [YGL100W/SEH1], the protein stability index is, setting by setting: (doa10∆) 3.27 ± 0.12; (pdr5∆) 3.51 ± 0.1; (san1∆) 3.49 ± 0.053; (ubr1∆) 3.38 ± 0.059.
In the same order, the values of PKVKEIKTVVLVPQLGH [PRP8] are 1.93 ± 0.088, 2.25 ± 0.08, 1.94 ± 0.14 and 2.31 ± 0.048.
